Measured values published in the DeepSol protein solubility set.

Test: soluble on expression in E. coli; label from the status in PepcDB or PDB records

Sequence	soluble on expression in E. coli
SLARKRRSTQRFSTTRKLKKERKIGTGKKEAEPLLPDLAEINAPDLMPTLVLNFDNVLASIAYDPVKGYIVRKRPGVDAFLSTLANFYELVLWSDHPFPFIEDLLRARLEWPISFTLYQENMDRRGSSRYRKIVQKGPFFKATRGVACSSGLSETAETLEEIFDNLERLGRRMDRVLYIDIDGSVLPSTQMRNFIKVTPFHGEAQEMLEDHALPELTDLLIGAAVSAGDVREMLLRYGGGADGNVGKR	soluble
GPGSMNVDDFRTVIPSPVYVATRGERSGINVAVRALAPVTDVVFDMEEQFAVVCQRRRFSTYAISSWMESLDVPSIPGAAVPLVSVEPQGFSSLGFALSALQFLSSSLHVIAGYHRAPVVDIFDLENVDEETSEPQQRFNLTDVKENGNVEDGSSAYANDVMPMDRYVSLGALSSGLSVWLDSRSGKAEACTGVLTRQYTIGAHNRHTGRRDPLACVTSLCQGNPANILLGTEAGALQLWDVRCARECVAQHMTSASICRLHPSYSYPLRNVVWLNTLAGCVEAVSVGQSDMELLARRLCPDFQRSSSTFHLPPPRLSFMESSGVVACPHISSGKLLLYDGSSLVKQPNNSRTQLSSYNRGVDGKDNEYENGHCSNFGGFLREASSSSEESGEREIPLLNALPSEANALVTACTVWSNRDMFVLGDETGRVQLL	not soluble
MASGVTVNDEVIKVFNDMKVRKSSTPEEIKKRKKAVLFCLSDDKKQIIVEEAKQILVGDIGDTVEDPYTAFVKLLPLNDCRYALYDATYETKESKKEDLVFIFWAPESAPLKSKMIYASSKDAIKKKFTGIKHEWQVNGLDDIKDRSTLGEKLGGNVVVSLEGKPL	soluble
MSLDKPYHVKFYSYNFPLPKPVVTAHGHWQRRRGLIVELTDQRGNRGRGEIAPLPWFGTEDLASATDFCRSLKGRITPAQIEKIGDRLPCCGFAFGSAEWELESGSVIENSPNSLSYCQLLPTGEAALDYLASNPQLGASTFKWKIGVGDFAVERDLYGQLWRRLPEGCQIRLDANGGLSVDIAQQWLTLLDRQRENSGPKIQYLEQPLPPGEIDEMFRLQEDFATSIALDEAVCSLAQLAQLYDKGWSGLYILKAAIMGNPRVLNHWLKTHPIPAIFSSVFETAIARGQVLALAQKWNLPDHAVGFAPLREPITEATPDSVEGHHHHHH	soluble
MAATMNEGNAQHAWDLMKKITFAMLATRDGEKIRSRPMAAYVRPEEGAIYFLTDVRRHKDEEIAQDHHVNLGFANASAQKYVSVTGYAAISNDRAKIKELFGTEAKAWWDSADDPNIRVLKVTPEEAEYWDSPGSLISYAKMMVAAATGNRPDLGENAKVAI	not soluble
GPGSMTGPFRYVITDMDGTLLSPDHFVSDYTRDTLKTLVHEHGVIPILATGRSYADVRIIADNLKAYIWCDGTAAPGARAPASPSRAPVIYLITSNGATVHNGVTHEVVFRTSIDPALAEKLLQLLPSDEEVVNTNAYQNDDWVCRIDWPKMMAVSKESGIRFIHVPHPLPSSSCALGSAAASPDAAARGIAIGDYTGISKIFFITDDAARLAALADEVHAIAKAHGGAPVSLTFSMSDCMDIMANGVTKGEALKRLFGAILPSRDGVDVVADALAHAIAFGDGLNDAEMLASVGKGCVMGNANPKLIAQHPELEVILTNAEDGVAKKLRSAFHLPL	soluble
MRQWTATHMAKLARKASIAVGKKGTDLPGQIARRVDHNILRKLAKQVDDIVFISGTNGKTTTSNLIGHTLKKNQINIIHNNEGANMAAGITSAFIMQSSKNTNIAIIEIDEGSIPRVLNEVTPSMMVFTNFFRDQMDRFGEIDIMVDNIAKSISNKGIKLLLNADDPFVSRLKIASHSIVYYGMKKFAHDFEQSTMNESKYCPNCGRLLQYDYIHYNQIGHYHCECGFKREEPTYEVSSFDASPFLKMIINQSEFNMKIAGDFNSYNAIAAYTVLRELGLNDDAIRKGFETYTSDNGRMQYFSKNKKEAMINLAKNPAGMNASLSVGEQIDDKKIYVISLNDNAADGRDISWIYDADFEKLATQDIEAIIVSGTRAEELQLRLKLAEVEVPIKVEKDIYKATALTMKYSSFTVAIPNYTSLTPMLEQLNRSFEGGQS	not soluble
MGSDKIHHHHHHKDYKTFPDKYTLSSVDVGGMTAKEAKKAIKKAIDKYQIKVKLDDAEFEMNAEDLGLEYNEKADMQTLINAANRNKVPDKQVKLFNMKKGDEMQNALVDSYITAMTEAQTDSTSNTDNDTDDTKQADKSDAEIFDIKTVVPYRATITYNADAGQFEGVDGVSGDAPIYDKAATKLSSAVKEMKKKAELESSTGYVEGEKAADSDAVKKALKEADAYLDVTVQRHL	not soluble
MKTEKEEAEEEPFVIRPYLKSELAHKYNPHLPLIYAMQKLRGWIRNNKELYDAMYSGGEGKNDHAYSSRQVRLIVKFLDEP	not soluble
MSLSERIIVTYQVAAAPAEIAARAEALAIEQSVECPLAAVTEQQIRDEIVGRVEAIAPIGETRFSVRVSLASATAPAEPGQLLNMLFGNSSIQPDVTLADVELPPAYPAAFGGPKLGISGLRAKLGAPRRALTGSALKPQGLAPEALAGLAHRLALGGVDLIKDDHGIADQAFSPFAARVPAVARAMREACAVRGAAMLYAPHVSGSLDDMRRQLDIVRREGLSVVMLMPMIVGLANFHLIAKEAEGLIVLAHPSLAGAQRIAPDLLLGKLFRLLGADATIFPHYGGRFAYTPETCRALADAARRDWHDLKPCLPVPAGGIAIDRIKELLAFYGTDVMLLIGGSLLAAGEQLTEHAARFTAEVASHGQEGHHHHHH	soluble
MDSVVSDVSDLVEPDEELKAWQTDRTRAPIATKIVVAGGFGAGKTTLVTAVSEITPLQTEALMTQASEDTDDLTGTPDKLTTTVAMDFGRITLDDDLVLYLFGTPGQQRFWFMWDDLVRGAIGAVVLADTRRLSDCFPALDYFESCGLPYVVAVNHFDGSEKFEPEDVREALTVPAHIPVMIMDARRRISVIETLLALVGHALEVSPELEHHHHHH	soluble
MTATNKQVILKDYVSGFPTESDFDFTTTTVELRVPEGTNSVLVKNLYLSCDPYMRIRMGKPDPSTAALAQAYTPGQPIQGYGVSRIIESGHPDYKKGDLLWGIVAWEEYSVITPMTHAHFKIQHTDVPLSYYTGLLGMPGMTAYAGFYEVCSPKEGETVYVSAASGAVGQLVGQLAKMMGCYVVGSAGSKEKVDLLKTKFGFDDAFNYKEESDLTAALKRCFPNGIDIYFENVGGKMLDAVLVNMNMHGRIAVCGMISQYNLENQEGVHNLSNIIYKRIRIQGFVVSDFYDKYSKFLEFVLPHIREGKITYVEDVADGLEKAPEALVGLFHGKNVGKQVVVVARE	soluble
MSLTNEKSTEEIALGIRRRVFFHTMKNNGGYLSQACSAAESLALLYNELLTLGEPTLPKVPLPFRGVPSAHNPDAFTGAGYHGPVGPNFDRFFISPAHYALVIYSVLIEMGRMDEHALDHFNKDGGSVEMIGAEHSPGMEVTTGSLAQGLSMASGVAWARLRKKEPGKVWVYMSDGEFQEGQTWECLAAMSYHKIDNIRVIVDVNRQQCDGAMSSVLDLGDLASRVASFGVTCRSVDGHDLGALRAAAESAEAGKPLVILANTSPYQGMDFLKKRFPRLHYVRFKSAEERQEMQTALAIELGIDLTAMERAEGHHHHHH	not soluble
MEEKPKYKRILLKLSGEAFAGEQGYGIDPAFLEYISHEIKNVYDLGVQVAIVIGGGNIFRGFQGKEIGVDRATADYMGMLATVINALALQSALENHVNIPTRVLSAIEMRQVAEPYIRRRAIRHLEKGRIVIFAGGTGNPFFSTDTAAALRAAEIGAEVLIKATKVGGIYDKDPEKYPDAVLIKEISYLEVINMGLKVMDHTALTLCKENEIPIIVLNVKEKGNLRRAVLGEEVGSVVRGLEHHHHHH	not soluble
MGSDKIHHHHHHMMPYLAKILLYPVKSLDGVEVEKVGVLASGALQHDREFAIFDERGKFVNGKRHAKIHLLRVQFALFNRTISLQIPGGNSQQVFHLDEERQALEATLSNYFEFAVTLRQNSLMGFPDDTHSPGPTVISTATLTEVASWFPGLSVDEIRRRMRANIEIDGVPAFWEDRLFSEQGDLVSFRVGDVDFFGANPCQRCIVPTRDSYSGEAYPSFQKIFATQRQATLPNWVASSPFNHFYRLSVNTQLPISSAGKILQIGDGVDIFP	not soluble
MEFKNPGFTGLFVIGRKYFMTAENTEMTLHPKKLPPNAGKGRVKGVPNKTTSLLKESVIEAAKRAGSKYGKEGLISYLEKQALKCPAAYLALLGKVLPLQVTGEDGGAIKMIGRVEIAPLGHDNTTD	not soluble
SNAMKRKVQVKNITIGEGRPKICVPIIGKNKKDIIKEAKELKDACLDIIEWRVDFFENVENIKEVKEVLYELRSYIHDIPLLFTFRSVVEGGEKLISRDYYTTLNKEISNTGLVDLIDVELFMGDEVIDEVVNFAHKKEVKVIISNHDFNKTPKKEEIVSRLCRMQELGADLPKIAVMPQNEKDVLVLLEATNEMFKIYADRPIITMSMSGMGVISRLCGEIFGSALTFGAAKSVSAPGQISFKELNSVLNLLHKSIN	soluble
DGYWYGDYYGVMSFGVNTDLVQEVPKSWEALLDSQYANAFALAGDPRASNQAILAVMSAGIADGTEPGEASGKKGLEFFGKLNKAGGFVPVIGKAGTIAQGQTPIVAAWDYNLLSWRDELKGNPPMEVVIPEGPSLAGVYVQAISAFAPHPNAAKLWMEYLYS	not soluble
MSRFVQDLSKAMSQDGASQFQEVILQELELSVKKELEKILTTAASHEFEHTKKDLDGFRKLFHRFLQEKGPSVDWGKIQRPPEDSIQPYEKIKARGLPDNISSVLNKLVVVKLNGGLGTSMGCKGPKSLIGVRNENTFLDLTVQQIEHLNKTYNTDVPLVLMNSFNTDEDTKKILQKYNHCRVKIYTFNQSRYPRINKESLLPIAKDVSYSGENTEAWYPPGHGDIYASFYNSGLLDTFIEEGKEYIFVSNIDNLGATVDLYILNHLMNPPNGKRCEFVMEVTNKTRADVKGGTLTQYEGKLRLVEIAQVPKAHVDEFKSVSKFKIFNTNNLWISLGAVKRLQEQNAIDMEIIVNPKTLDGGLNVIQLETAVGAAIKSFENSLGINVPRSRFLPVKTTSDLLLVMSNLYSLNAGSLTMSEKREFPTVPLVKLGSSFTKVQDYLRRFESIPDMLELDHLTVSGDVTFGKNVSLKGTVIIIANHGDRIDIPPGAVLENKIVSGNLRILDH	soluble
MSELTIGLILPDVLGTYGDDGNALVLRQRARLRGISAEIHTVRLGEAVPEGLDLYCLGGGEDTAQILAAEHLNNDRGLRRAADSGRPILGICAGLQVLGRSFRASGKIVEGVGLIDATTASLAKRTIGELQSTPTAAGFTAELTEPLTGFENHMGATILGPDAQPLGAVTRGVGNTDLHGITTASVSDEQVSYEGAVQGNVVCTYMHGPALARNPQLADLLLAKAMGIALADLAPLDLPVVDQLRKERLA	not soluble
NKPSLLLYIHGFNSSPLSHKAQVMAEYCKVHRPDIKVIVPRLPSYPSQAAEFLVQLVEEYKDTHQIGLVGSSLGGYLSTWLNHQYGFKAALVNPAVKPYELLADYLGKQVNPYTQEEYFLEEKHMEELLALQVETLHSVDDLWLLQQEGDEVLDYRQAVDKYLACKQTIEKGGDHSFVNFERYPEQIIQFLN	not soluble
MALVQALVPREREPKLSILQMDRGDPQHSSHWCPEREKVKLLTLKPRETSKNILINFYRAFNLDKDVFIHQANHPLTVPSSVVMGDNGHTLAEDDKRPCFRVLPCYLERVSSGISISWISAPLPVGAMKHQLLCDLMDLITLSFWLAGQCMSLKATNMQHCKCSIATSDWAIELDRTDYKTLPSEYSILALLQVFAGKNCMDRVLLHVDVNYLKSLP	soluble
